Data taken from the nanobody polyreactivity screen of Harvey et al. (2022).

Assay: yeast display, Sf9 membrane polyspecificity reagent, FACS + sequencing; frameworks hold sequencing errors
Method in brief: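 A synthetic nanobody library was expressed on Saccharomyces cerevisiae BJ5465 by galactose induction for 36–48 hours. The library was stained for 1 hour at 4 °C with 10% biotinylated, detergent-solubilized Sf9 membrane reagent and enriched with streptavidin microbeads before FACS. Low and high (top ~1%) gates were set on anti-HA fluorescence for expression and streptavidin fluorescence for reagent binding, and each polyreactivity label reflects the gate of origin.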
In the case of “QVQLVESGGGLVQAGGSLRLSCAASGNTFYRNAMGWYRQAPGKERELVAAITFSTGRTYYADSVKGRFTISRDNAKNTVYLQLNSLKPEDTAVYYCAAFYSGGDYWGQCTQVTVSS”, the “polyreactivity (PSR sort gate)” value is reported as “high polyreactivity”.
With “QVQLVESGGGLVQAGGSLRLSCAASGRTFRRYAKGWYRQAPGKERELVATIRSGDNTNYADSVKGRFTISRDNAKNTVYLQMNSLKPEDTAVYYCNRSPKSGQVTYLYSVNAHYDYWGQGTQVSVSS” the “polyreactivity (PSR sort gate)” value was “low polyreactivity”.
For “QVQLVESGGGLVQAGGSLRLSCAASGRTFWTNAMGWYRQAPGKEREFVAAISWRGASTFYADSVKGRFTISRDNAKNTVYLQMNSLNPEDTAVYYCAAQSRTRSFYGKYDSWGQATQVTVSS”, the “polyreactivity (PSR sort gate)” value was “low polyreactivity”.
For “QVHLVESVGGLVQAGGSLRLSCAASGFIYKPYAMGWYRQAPGKERELVAAITVNGCTTYYADSVKARFTISRDNAKNTVYLQMNSLKPEDTAVYYCNRGSPGGPSWYHYDYWGQGTQVTVSS”, the “polyreactivity (PSR sort gate)” value was “high polyreactivity”.
With “QVPLVESGGGLGQAGGSLRLSCGASGSIFSLYAMGWSRLAPGKEREVVASLTWRGDSTYYADSVTGRFTISRDNAKNTVYLQMNSLKPEDTAVYNCNAVYYYAEPTSFGGYDYWGQGTQVTVSS” the “polyreactivity (PSR sort gate)” value was “low polyreactivity”.
In the case of “QVQLVESGGGLVQAGGSLRLSCAASGSTNYPNAMGWYRQAPGKESELVARISRNGGSTYADSVKGRFTISRDNAKNTVYFQMNSLKPEDTEVYYCARSYASFSWLRTKEPYEYWGQGTQVTVSS”, the “polyreactivity (PSR sort gate)” value is reported as “low polyreactivity”.
For “QVQLVEAGAGLVQAGGSLRLSCAASGGIFGQYTRGWSRHAPGKERELVAGISTSGGSTYYADSVKGRFTISRDYAKNTVYLQMNSLKPGDTAVYYCAAGSYRKRVTNYSYRTPYGYWGHGTQVTVSS”, the “polyreactivity (PSR sort gate)” value was “high polyreactivity”.
For “QVQLVESGGGLVQAGGSLRLSCAASGRIFPTYTMGWYRQAPGKERELVAGISYSGTSTSYADSVKGRFTISRDNAKNTVYLQMNSLKPEDTAVYYCAAKYYGRSFYYGYDYWGQGTQVTVSS”, the “polyreactivity (PSR sort gate)” value was “low polyreactivity”.
For “HVQLVESAGGLVQEGGSLRVSCAASGFTFSFYAMGGYRQAPGKERELVAAISWNSGSTYYADSVKGRFTISRDNAKNTVYLQMNSLKPADTAVYYCAADVQRYRGITYYYWGQGTPVTVSS”, the “polyreactivity (PSR sort gate)” value was “high polyreactivity”.
In the case of “QVQLVESGGGLVQAGGSLRLSCAAYGSTLATNAMGWYRPAPGKERELVAYADSVKGRFTISRDNAKNTVYLQMNSLKPEDTAVYYCAKDALVIDGGGGYDYWGQGTQVTVSS”, the “polyreactivity (PSR sort gate)” value is reported as “low polyreactivity”.
For “QVQLVESGGGLVQAGGSLRLSCAASGSIFVGNAMGWYRQAPGTERELVAAISSSGGSTYSADSVKGRFTISRDNAKNTVYLQMNSLKPEDTAVYYCAADTYSTSGYYYWGQGTQVTVSS”, the “polyreactivity (PSR sort gate)” value was “low polyreactivity”.
With “QVQLVESGGGLVQAGGSLRLSCAASGSIFKQNDMGWYRHAPGKERELVAAITYTGGSTYYADSVKGRFTISRDNAKNTVYLQMNSLKPEDTAVYYCAARITSPRARSRGFYYWGQGTQVTVSS” the “polyreactivity (PSR sort gate)” value was “high polyreactivity”.
With “QVQLVESRGGLVQAGGSLRLSCAASGRIFGTNAMGWYRQAPGRERELVATITRGGGNTYYADSVKGRFTISRDIAKNTVYLQMNSLKPEDTAVYYCAAKFHRFAWYSHYDYWGHGTQVTVSS” the “polyreactivity (PSR sort gate)” value was “low polyreactivity”.
For “QVQLVESGGGLVQAGGSLRLSCAASGSIFSRYAMGWYRQAPGKERELVAGISQRGGSTNYADSVKGRFTISRDNAKNTVYLQMNSLKPEDTAVYYCAARRITVWGYNPAYGYRFDYWGQGTQVTVSS”, the “polyreactivity (PSR sort gate)” value was “high polyreactivity”.
With “QDQLVEAGGGLVQAGGSLRLSCAASGFTFYPYAMGWYRQAPGKERELVAAISYSGDRTYYADSVKGRFTISRDNAKNTVYLQMNSLKPEDTAVYDCVSAVHPGKYYYWGQGTQVTESS” the “polyreactivity (PSR sort gate)” value was “high polyreactivity”.
With “QVQLVESGGGLVQAGGSLRLSCAASGFTLGFYAMGWYRQAPGKESELVAAINWRGGSTYYADSVKGRFTISRDNAKNTVYLQMNSLKPEDTAVYYCNARWARGRYAQYVGLDREYDYWGQGTQVTVSS” the “polyreactivity (PSR sort gate)” value was “high polyreactivity”.
With “QVQLVESGGGLVQAGGSLRLSCAASGSIFSQYVMGWYRQAPGKERELVAAISSGGITYYADSVKGRFTISRDNAKNTVYLQMNSLKPEDTAVYYCNKTSWYQYGYWGQGTQVTVSS” the “polyreactivity (PSR sort gate)” value was “low polyreactivity”.
In the case of “QFQLVESGGGLVQAGGSLRLSCAASGLIFRRYAMGWYRQAPGKEREFVAAISWSGGSTYYADSVKGRFTISRDNAKNSVYLQINSLKPEDTGVSYFAAYDKSLYGSGYDYWGQGTQVTVSP”, the “polyreactivity (PSR sort gate)” value is reported as “high polyreactivity”.
In the case of “QVQLVESGGGLVQAGGSLRLSCAASGITFVQNVMGWYRQAPGKEREFVAGINYSGGSTYYADSVKGRFTISRDNAKNTVYLQMNSLKPEDTAVYYCAADYDRYTYAFVYRYRRMYYWGQGTQVTVSS”, the “polyreactivity (PSR sort gate)” value is reported as “low polyreactivity”.
With “QVQLVESGGGLVQAGGSLRLSCAASGFTFWYNDMGWYRQAPGKEREFVAAITTSGGNTYYADSVKGRFTISRDNAKNTVYLNMNSLIPEDTAVYYCAAEEGSSDATGYDYWGQGTQVTVSS” the “polyreactivity (PSR sort gate)” value was “low polyreactivity”.
With “QVQLVESGGGLVQAGGSLRLSCAASGFIIDEYAMGWYRQAPGKERELVAAISWSGSRTYYADSVKGRFTISRDNAKNTVYLQMNSLKPEDTAVYYCAKVTGVGAGRRIYWGQGTQVTVSS” the “polyreactivity (PSR sort gate)” value was “low polyreactivity”.
In the case of “QVQLVESGGGLVQAGGSLRLSCAASGRTFKYYAMGWYRQAPGKERELVAAISVSGGRTYYADSVKGRFTISRDNAKNTVYLQMNSLKPEDTAVYYCNAVRYVHPEDYWGQGTQVTVSS”, the “polyreactivity (PSR sort gate)” value is reported as “high polyreactivity”.
With “QVQLVYSGGGLVQAGGSLRLSCAASGRTSWIKAMGWYRTAPGKERQLVAAIRYSGRTYYADSVKGRFTISRDNAKNTVYLQMNSLKPEDYGVYYCAAVVGGYETGRYYYWGQGTQVTVSS” the “polyreactivity (PSR sort gate)” value was “high polyreactivity”.
With “QVQLVESGGGLVQAGGSLLLSCDASGGTLDYYVMGWYRQAPGKERELVAAISSSGGSTYYADSVKGRFTISRDNAKNTVYLQMNCLNPEDTAVYYCAGDPSPYGDEYDYWVQGTQVTVSS” the “polyreactivity (PSR sort gate)” value was “low polyreactivity”.
In the case of “QVQLVESGGGLVQAGGSLRLSCAASGSIFFVNAMGWYRQAPGKERELVAAITSGGNTNYADSVKGRFTISRDNAKNTVYFQMNSLKPEDTAVFYSATSYYLAYRSITTYDYWGQGTQVTVSS”, the “polyreactivity (PSR sort gate)” value is reported as “low polyreactivity”.
With “QVQLADSGGGLVQAGGSLRLICAASGSIIRNKAMGWYRQAPGKERELVAAITSTGTGTYYADSVKGRFTISRDYAKNTVYLQMNRVKPEDPAVYYCAVDDEFEFGYWGQGTQVTVSS” the “polyreactivity (PSR sort gate)” value was “low polyreactivity”.
In the case of “QVQLVESWGGLVQAGGSLRLSCAASGFTFDNYPMGWYRQAPGKERELVAAIINSGGSTYYADSVKGRFTISRDNAKNTVYLQMNSLKPEDTAVYYCAARILPFRQWYRTYEYWGQGTQVTVSS”, the “polyreactivity (PSR sort gate)” value is reported as “high polyreactivity”.
For “QVQLEESGGGLVQAGGSLRLSCAASGFTFSPNAMGWYRQAPGKVRELVAAIDWIGGSTYYADSVKWRFTISRDNAKNTVYLQMKSLNTEDTAVYLCTADWVYWHYLTYLVTFDYWGQGTQVTVSS”, the “polyreactivity (PSR sort gate)” value was “low polyreactivity”.
In the case of “QVQLVESGGGLVQAGGSLRLSCAASGSTIYWYAMGWYRQAPGKERELVAAISLSGGSTYYADSVKGRFTISRDNAKNTVYLQMNSLKPEDTAVYYCAARTSYYVYRHPSGRYDYWGQGTQVTVSS”, the “polyreactivity (PSR sort gate)” value is reported as “low polyreactivity”.
With “QVQLVESGGGSVQAGGSLRLSCAASGSIFYPYTMGWSRQAPGKERELVAVITGSGGRTYYADSVKGRFTISRDNAKNTVYLQMNSLKPEDTAVYYCNASPFTVRYYKYEYWGQGTQVTVSS” the “polyreactivity (PSR sort gate)” value was “low polyreactivity”.
With “QVQLLESGGGLVQARGSLRLSCAASGITFSRYAMGWYRQAPGKERELVAAITRRGGNTYYADSVKGSFTISRVYAKNTVYLQMNSLKPEDTAVYYCAAGYTYYRGDYWGQGTQVTVSS” the “polyreactivity (PSR sort gate)” value was “high polyreactivity”.
With “QVQLVESGGGLVQAGGSLRLSCAASGITFRYNAMGWYRQAPGKERQLVAGITGSGGRTYYADSVKGRFTISRDNAKNSVYLQMNSLKPEDTAVYYCAAYPPARRTMDYWGQGTQVTVSS” the “polyreactivity (PSR sort gate)” value was “low polyreactivity”.
In the case of “QVQLVESGGGLVQAGGSLRFSCAASGFIFVSNAVGWYRQAPGKERELVAAISRRGGRTYYADSVKGRFTISRDNEKNTVYVPMNSLKPEDTAVYDCAADQYRVSHQWYDYWGQGTQVTVSS”, the “polyreactivity (PSR sort gate)” value is reported as “high polyreactivity”.
For “QVQLVESGGGLVQAGGSLRIRSAASGGIIWWNAMGWYIQAPGKERELVAAISRSGGTTYYADSVKGRFTISRDNEKNSVYLQMNSLKPEDTAVYFCAAQYRYPGFNYWGQGSQVTVSS”, the “polyreactivity (PSR sort gate)” value was “high polyreactivity”.
In the case of “QVQLVESGGGLVQAGGSLRLSCAASGRIFNYNAMGWYRQAPGKERELVATITRGGNTYYADSVKGRFTISRDNAKNTVYLQMNSLKPEDTAVYYCNAAWWKVSYVRQKYYYWGQGTQVTVSS”, the “polyreactivity (PSR sort gate)” value is reported as “high polyreactivity”.
For “QVHLVESGGGLVQAGGSLRLSCAASGFIFHSYAMGWYRQAPGKERELVASISRGGGSTYYADSVKGRFTISRDNAKNTVYLQMNSLKTEDTAVYYCNAVWRSNSRFDYWGQGTQVTVSS”, the “polyreactivity (PSR sort gate)” value was “high polyreactivity”.
With “QVQLVESGGGLVQAGGSLRLSCAASGRIFTYYAKGWYRQPPGKERELVAVISSVGGTYYADSVKGRFTISRDNAKNTVYLQMNSLKPEDTAVYYCAALSDSRWHRFGYWGQGTQVTVSS” the “polyreactivity (PSR sort gate)” value was “high polyreactivity”.
With “QVQLVESGGGLVQAGGSLRLSCSASGFTFYYAMGWYRQAPGKERELVAAITSSGTTYYADSVKGRFTISRDNAKNTVYLQMHSLKPEDTAVYYCNAVRWSKYAFYDYWGQGTQVTVSS” the “polyreactivity (PSR sort gate)” value was “high polyreactivity”.
In the case of “QVQLVESGGGLVQAGGSLRLRCAASGGIFGFYAMGWYRQAPGKERELVAAISWGGGSTYYADSVKGRFTIARDNAKNTVFVQMNSLKPEDTAVYYCAADPALTKEYGYWGQGTQVTVSS”, the “polyreactivity (PSR sort gate)” value is reported as “low polyreactivity”.
In the case of “QVQLVESGGGLVQAGGSLRLSCAASGRTFGYYTMGWYRQAPGKERELVAAITSSGGSTYYADSVKGRFTISRDNAKNTVYLQMNSLKPEDTAVDYCAARAAYYFLYSAMYYWGQGTQVTVSS”, the “polyreactivity (PSR sort gate)” value is reported as “high polyreactivity”.
